The record followed here is patent publication US20200157187A1 (LOYOLA UNIVERSITY CHICAGO, published 2020).

The term koff denotes a measure of how fast the partners let go of each other. Broadly, the kon is the rate constant with which the complex forms. One may read the Kd as the equilibrium constant for the complex coming apart.

Assay [1] has as its target T1, active TGF-β on the surface of human CD4+CD25+ Tregs (human, UniProt P01137 279-390, The active form is a disulfide-linked homodimer of the growth factor domain; one chain is given.).
T1 construct: also called surface TGF-β; surface active TGF-β
The assay is described as follows: confocal microscopy of human Tregs, detected with anti-rabbit Fab-AF488. As for the experimental part: FIGS. 5A and 5B represent functional characterization of 6Fc. FIG. 5A represents an effect of 6Fc on phosphorylation of SMAD2/3. […] As a control, WTFc was used (shown on the right panel). Phosphorylation of SMAD2,3 was assessed by flow cytometry (solid line). Dotted lines show isotype control staining. FIG. 5B represents confocal images of Tregs stained with the monobody-Ig fusion proteins. Purified human PBMC-derived Tregs were mixed with 6Fc or WTFc (40 μg/ml), followed by anti-rabbit Fab-AF488 (green) and Hoechst-33342 (blue) staining. Single-cell images were obtained using an LSM-510 confocal microscope (×40).

The target of the next assay is T2, TGF-β3 (UniProt P10600 301-412).
T2 sequence (looked up): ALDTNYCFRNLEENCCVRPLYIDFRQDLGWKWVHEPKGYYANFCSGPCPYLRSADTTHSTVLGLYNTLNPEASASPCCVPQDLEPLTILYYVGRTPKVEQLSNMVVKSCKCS
Put plainly: ELISA on coated TGF-β isoforms.

The next assay addresses T3, TGF-β2 (UniProt P61812 303-414).
T3 sequence (looked up): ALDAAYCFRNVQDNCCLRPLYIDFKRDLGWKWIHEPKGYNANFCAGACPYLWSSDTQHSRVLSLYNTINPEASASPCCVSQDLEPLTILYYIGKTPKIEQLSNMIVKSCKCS
Put plainly: ELISA on coated TGF-β isoforms. For orientation: An ELISA detects its analyte on a solid surface through an enzyme-linked reagent.

Assay [2] deals with T4, active TGF-β1, recombinant (Ala279-Ser390) (UniProt P01137 279-390).
T4 construct: range 279-390; The background describes the growth factor domain as a dimer; also called purified active TGF-β1
Put plainly: SPR, kinetic analysis on active TGF-β. A general note: SPR reads the build-up and loss of mass on a sensor chip optically.

Assay [3] deals with T4, active TGF-β1, recombinant …. The assay is described as follows: SPR, chip coated with active TGF-β, positive control antibody.

T4 sequence (P01137 279-390 limits assumed, form in doubt): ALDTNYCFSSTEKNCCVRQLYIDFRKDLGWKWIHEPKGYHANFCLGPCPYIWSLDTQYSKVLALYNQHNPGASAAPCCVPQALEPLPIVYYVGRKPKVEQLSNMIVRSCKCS
T1 sequence (P01137 279-390 limits assumed): as the sequence (P01137 279-390 limits assumed, form in doubt) above

B1: WTFc (wild-type FN3 fused to rabbit IgG constant region CH2/CH3, His6 tag) (Fc fusion)
chain (part 1 of 2): AVSDVPRKLEVVAATPTSLLISWDAPIKRRLYYRITYGETGGNSPVQEFTVPGSKSTATISGLKPGVDYTITVYAVTYPAPYSKPISINYR
chain (part 2 of 2): HHHHHH
notes: Control fusion protein; also called wild-type FN3 fusion protein; not shown: rabbit IgG constant region, CH2/CH3 (Cγ2-Cγ3) domains
As for B1, the binding result is reported as “no binding (tested: 40 µg/ml)” in assay [1], “no binding” with TGF-β3 and “no binding” in the assay with TGF-β2.

B2: anti-TGF-β monoclonal antibody 1D11 (antibody, V domains shown)
VH: QVQLQQSGPELVRPGASVKLSCKASGYIFITYWMNWVKQRPGQGLEWIGQIFPASGSTNYNEMFEGKATLTVDTSSSTAYMQLSSLTSEDSAVYYCARGDGNYALDAMDYWGQGTSVTVSS
VL: DIVLTQSPASLAVSLGQRATISCRASESVDSYGNSFMHWYQQKSGQPPKLLIYLASNLESGVPARFSGSGSRTDFTLTIDPVEADDAATYYCQQNNEDPLTFGAGTKLEIK
B2: in assay [2], the koff was 0.00028 s⁻¹ and the kon is 14000 M⁻¹ s⁻¹. In assay [3], the Kd amounted to 1.9 nM.
